In patent US20250011363A1, “OPTIMIZED SHORTENED PEPTIDE THAT BINDS TO ACETYLCHOLINE RECEPTOR, AND USE THEREOF” (SKINMED CO., LTD., priority 2021, published 2025):

target: acetylcholine receptor; experiment: SPR, AchR immobilised on chip, peptide at 10 uM

| Binding affinity | Binder |
| --- | --- |
| 149 RU | KGQRKK [6mer-2-281] |
| 148 RU | KSRLRR [6mer-2-270] |
| 131 RU | KLRQRR [6mer-2-273] |
| 153 RU | RLVCRK [6mer-2-276] |
| 153 RU | KSIYRR [6mer-2-280] |
| 148 RU | KSLQRK [6mer-2-279] |
| 135 RU | RQIQKK [6mer-2-278] |
| 154 RU | KWRSRK [6mer-2-272] |
| 123 RU | KWVQRK [6mer-2-269] |
| 135 RU | KLITRR [6mer-2-275] |
| 128 RU | RLRYRK [6mer-2-277] |
| 131 RU | RLFQKK [6mer-2-271] |
| 148 RU | KLRTKR [6mer-2-274] |

target: acetylcholine receptor; experiment: SPR, AchR immobilised on CM5 chip, peptide at 10 uM

| Binding affinity (RU) | Binder |
| --- | --- |
| 142 RU | RRGYTR [6mer-1-461] |
| 121 RU | KRRQTK [6mer-1-439] |
| 124 RU | RKVLRR [6mer-1-454] |
| 148 RU | KRGFYR [6mer-1-419] |
| 148 RU | KRVLRK [6mer-1-410] |
| 148 RU | RRGFYR [6mer-1-460] |
| 146 RU | RRRQQK [6mer-1-447] |
| 153 RU | KRLRTR [6mer-1-407] |
| 135 RU | KRGRCK [6mer-1-449] |
| 144 RU | KKWILK [6mer-1-444] |
| 153 RU | KRSFRK [6mer-1-463] |
| 131 RU | RRWVYK [6mer-1-459] |
| 131 RU | RRQRLK [6mer-1-464] |
| 151 RU | RKVVYK [6mer-1-450] |
| 139 RU | RKGQLK [6mer-1-1458] |
| 144 RU | KKQLQK [6mer-1-430] |
| 148 RU | KRSICR [6mer-1-466] |
| 153 RU | RKVRLR [6mer-1-451] |
| 153 RU | KRSQTK [6mer-1-403] |
| 148 RU | KKVQTR [6mer-1-1405] |
| 145 RU | KRVRLR [6mer-1-445] |
| 154 RU | RKQQYR [6mer-1-433] |

| Binding affinity (RU) | Binder |
| --- | --- |
| 139 RU | KRVVLR [6mer-1-428] |
| 121 RU | RKLLCR [6mer-1-457] |
| 153 RU | RRGQYR [6mer-1-456] |
| 124 RU | RRVIRR [6mer-1-446] |
| 141 RU | RKRFSR [6mer-1-448] |
| 135 RU | RRQRRK [6mer-1-429] |
| 137 RU | KKQRQK [6mer-1-404] |
| 148 RU | RKQFCR [6mer-1-413] |
| 131 RU | RKWFLK [6mer-1-437] |
| 154 RU | RKQVYK [6mer-1-465] |
| 139 RU | RKSVCK [6mer-1-417] |
| 153 RU | RKVLLR [6mer-1-406] |
| 131 RU | KKGQYR [6mer-1-426] |
| 144 RU | RRWISR [6mer-1-409] |
| 148 RU | KKLFYK [6mer-1-436] |
| 126 RU | RKQILK [6mer-1-462] |
| 142 RU | RRGFQK [6mer-1-438] |
| 135 RU | RRGVCR [6mer-1-415] |
| 139 RU | RKGIQK [6mer-1-432] |
| 121 RU | RRQRSR [6mer-1-411] |
| 131 RU | RKLQYK [6mer-1-442] |
| 131 RU | RKGVQK [6mer-1-425] |

| Binding affinity (RU) | Binder |
| --- | --- |
| 148 RU | KKGQYK [6mer-1-420] |
| 147 RU | KRGRSR [6mer-1-408] |
| 123 RU | RRQVRK [6mer-1-418] |
| 135 RU | RKWRCK [6mer-1-435] |
| 139 RU | RKSILK [6mer-1-412] |
| 147 RU | RRGYCK [6mer-1-423] |
| 154 RU | KRVRQR [6mer-1-422] |
| 145 RU | RKVLLK [6mer-1-443] |
| 141 RU | KRLYTR [6mer-1-452] |
| 154 RU | KKWQQK [6mer-1-453] |
| 153 RU | KRVYSK [6mer-1-440] |
| 126 RU | RRVFYK [6mer-1-455] |
| 135 RU | RRRIYR [6mer-1-424] |
| 121 RU | KRGYQK [6mer-1-467] |
| 147 RU | KRWVLR [6mer-1-427] |
| 135 RU | RKVLYR [6mer-1-421] |
| 153 RU | KRSFLR [6mer-1-414] |
| 137 RU | KRWVCR [6mer-1-434] |
| 144 RU | RRRFRR [6mer-1-431] |
| 153 RU | RKLIYR [6mer-1-416] |
| 146 RU | RRVYYR [6mer-1-441] |
